According to US20230407373A1 (priority 2020, published 2023):
Read-outs that look alike come from different tables or passages of the source.

Experiments:
Assay type in all cases: binding
[1] = tested on: SARS-CoV-2 gRNA; conditions: for target (unweighted spectral count of the protein in the RNP capture): LC-MS/MS, Probe I sample (first 199 lines of Table 2)
[2] = tested on: HCoV-OC43 gRNA and sgRNA; conditions: for target (unweighted spectral count, OC43 Probe II capture) / target (unweighted spectral count): tested against no-probe control; for target (unweighted spectral count, OC43 Probe II capture): FDR<10%; for target (unweighted spectral count, OC43 Probe II) / background (unweighted spectral count, no-probe control): type n_48_v, 48 hpi; for target (unweighted spectral count, OC43 Probe II): OC43 Probe II capture on infected cells; for background (unweighted spectral count, no-probe control): no-probe control on infected cells; for target (spectral count) / background (spectral count): type s_36_m, Probe II; for target (spectral count): HCoV-OC43-infected HCT-8 cells; for background (spectral count): uninfected-probe control; for target (unweighted spectral count): OC43 Probe II, 24 hpi (type n_24_v), infected cells
[3] = tested on: gRNA of HCoV-OC43; conditions: for target (spectral count, OC43 Probe I RNP capture) / background (spectral count, no-probe control): type n_48_v: 48 hours post-infection; for target (spectral count, OC43 Probe I RNP capture): infected cells, unweighted spectral count; for background (spectral count, no-probe control): no-probe control on infected cells

| Molecule | target (unweighted spectral count of the protein in the RNP capture) ([1]; […]) | target (unweighted spectral count, OC43 Probe II capture) ([2]; 24 hpi, type n_24_v) | target (spectral count, OC43 Probe I RNP capture) [3] | background (spectral count, no-probe control) [3] | target (unweighted spectral count, OC43 Probe II capture) ([2]; 36 hpi, type n_36_v) | target (unweighted spectral count, OC43 Probe II) [2] | background (unweighted spectral count, no-probe control) [2] | target (spectral count) ([2]; 36 hpi) | background (spectral count) ([2]; 36 hpi) | target (unweighted spectral count) [2] | other results |
| --- | --- | --- | --- | --- | --- | --- | --- | --- | --- | --- | --- |
| GRSF1 (protein, UniProt Q12849 118-480, looked up) G-rich sequence factor 1: SQESKTTYLEDLPPPPEYELAPSKLEEEVDDVFLIRAQGLPWSCTMEDVLNFFSDCRIRNGENGIHFLLNRDGKRRGDALIEMESEQDVQKALEKHRMYMGQRYVEVYEINNEDVDALMKSLQVKSSPVVNDGVVRLRGLPYSCNEKDIVDFFAGLNIVDITFVMDYRGRRKTGEAYVQFEEPEMANQALLKHREEIGNRYIEIFPSRRNEVRTHVGSYKGKKIASFPTAKYITEPEMVFEEHEVNEDIQPMTAFESEKEIELPKEVPEKLPEAADFGTTSSLHFVHMRGLPFQANAQDIINFFAPLKPVRITMEYSSSGKATGEADVHFETHEDAVAAMLKDRSHVHHRYIELFLNSCPKGK | 14 | 4 |  |  |  |  |  |  |  |  |  |
| POLDIP3: host protein, UniProt Q9BY77 (protein, UniProt Q9BY77 2-421, looked up) Polymerase delta-interacting …: ADISLDELIRKRGAAAKGRLNARPGVGGVRSRVGIQQGLLSQSTRTATFQQRFDARQKIGLSDARLKLGVKDAREKLLQKDARFRIKGKVQDAREMLNSRKQQTTVPQKPRQVADAREKISLKRSSPAAFINPPIGTVTPALKLTKTIQVPQQKAMAPLHPHPAGMRINVVNNHQAKQNLYDLDEDDDGIASVPTKQMKFAASGGFLHHMAGLSSSKLSMSKALPLTKVVQNDAYTAPALPSSIRTKALTNMSRTLVNKEEPPKELPAAEPVLSPLEGTKMTVNNLHPRVTEEDIVELFCVCGALKRARLVHPGVAEVVFVKKDDAITAYKKYNNRCLDGQPMKCNLHMNGNVITSDQPILLRLSDSPSMKKESELPRRVNSASSSNPPAEVDPDTILKALFKSSGASVTTQPTEFKIKL | 5 |  | 7 | 1 |  |  |  |  |  |  | target (spectral count) ([3]; type g_36_m, HCoV-OC43-infected HCT-8 cells, 36 hpi, Probe I): 7; background (spectral count) ([3]; type g_36_m, uninfected-probe control, 36 hpi, Probe I): 1 |
| CON_P35908 (protein, UniProt P35908 1-639, looked up) Keratin, type II cytoskeletal …: MSCQISCKSRGRGGGGGGFRGFSSGSAVVSGGSRRSTSSFSCLSRHGGGGGGFGGGGFGSRSLVGLGGTKSISISVAGGGGGFGAAGGFGGRGGGFGGGSSFGGGSGFSGGGFGGGGFGGGRFGGFGGPGGVGGLGGPGGFGPGGYPGGIHEVSVNQSLLQPLNVKVDPEIQNVKAQEREQIKTLNNKFASFIDKVRFLEQQNQVLQTKWELLQQMNVGTRPINLEPIFQGYIDSLKRYLDGLTAERTSQNSELNNMQDLVEDYKKKYEDEINKRTAAENDFVTLKKDVDNAYMIKVELQSKVDLLNQEIEFLKVLYDAEISQIHQSVTDTNVILSMDNSRNLDLDSIIAEVKAQYEEIAQRSKEEAEALYHSKYEELQVTVGRHGDSLKEIKIEISELNRVIQRLQGEIAHVKKQCKNVQDAIADAEQRGEHALKDARNKLNDLEEALQQAKEDLARLLRDYQELMNVKLALDVEIATYRKLLEGEECRMSGDLSSNVTVSVTSSTISSNVASKAAFGGSGGRGSSSGGGYSSGSSSYGSGGRQSGSRGGSGGGGSISGGGYGSGGGSGGRYGSGGGSKGGSISGGGYGSGGGKHSSGGGSRGGSSSGGGYGSGGGGSSSVKGSSGEAFGSSVTFSFR | 6 | 4 |  |  |  |  |  |  |  |  |  |
| PUF60: host protein, UniProt Q9UHX1 (protein, UniProt Q9UHX1 1-559, looked up) Poly(U)-binding-splicing …: MATATIALQVNGQQGGGSEPAAAAAVVAAGDKWKPPQGTDSIKMENGQSTAAKLGLPPLTPEQQEALQKAKKYAMEQSIKSVLVKQTIAHQQQQLTNLQMAAVTMGFGDPLSPLQSMAAQRQRALAIMCRVYVGSIYYELGEDTIRQAFAPFGPIKSIDMSWDSVTMKHKGFAFVEYEVPEAAQLALEQMNSVMLGGRNIKVGRPSNIGQAQPIIDQLAEEARAFNRIYVASVHQDLSDDDIKSVFEAFGKIKSCTLARDPTTGKHKGYGFIEYEKAQSSQDAVSSMNLFDLGGQYLRVGKAVTPPMPLLTPATPGGLPPAAAVAAAAATAKITAQEAVAGAAVLGTLGTPGLVSPALTLAQPLGTLPQAVMAAQAPGVITGVTPARPPIPVTIPSVGVVNPILASPPTLGLLEPKKEKEEEELFPESERPEMLSEQEHMSISGSSARHMVMQKLLRKQESTVMVLRNMVDPKDIDDDLEGEVTEECGKFGAVNRVIIYQEKQGEEEDAEIIVKIFVEFSIASETHKAIQALNGRWFAGRKVVAEVYDQERFDNSDLSA | 7 |  | 9 | 1 | 7 | 7 | 1 | 7 | 1 |  |  |
| CKAP4: host protein, UniProt Q07065 (protein, UniProt Q07065 1-602, looked up) Cytoskeleton-associated …: MPSAKQRGSKGGHGAASPSEKGAHPSGGADDVAKKPPPAPQQPPPPPAPHPQQHPQQHPQNQAHGKGGHRGGGGGGGKSSSSSSASAAAAAAAASSSASCSRRLGRALNFLFYLALVAAAAFSGWCVHHVLEEVQQVRRSHQDFSRQREELGQGLQGVEQKVQSLQATFGTFESILRSSQHKQDLTEKAVKQGESEVSRISEVLQKLQNEILKDLSDGIHVVKDARERDFTSLENTVEERLTELTKSINDNIAIFTEVQKRSQKEINDMKAKVASLEESEGNKQDLKALKEAVKEIQTSAKSREWDMEALRSTLQTMESDIYTEVRELVSLKQEQQAFKEAADTERLALQALTEKLLRSEESVSRLPEEIRRLEEELRQLKSDSHGPKEDGGFRHSEAFEALQQKSQGLDSRLQHVEDGVLSMQVASARQTESLESLLSKSQEHEQRLAALQGRLEGLGSSEADQDGLASTVRSLGETQLVLYGDVEELKRSVGELPSTVESLQKVQEQVHTLLSQDQAQAARLPPQDFLDRLSSLDNLKASVSQVEADLKMLRTAVDSLVAYSVKIETNENNLESAKGLLDDLRNDLDRLFVKVEKIHEKV |  |  |  |  | 12 |  |  | 12 | 1 | 8 | target (unweighted spectral count in RNP capture) ([1]; Probe I capture, […], LC-MS/MS LFQ): 5; background (unweighted spectral count in control) ([1]; no-probe control pull-down, used as background for Probe I): 1 |
| DDX3X (protein, UniProt O00571 2-662, looked up) ATP-dependent RNA helicase …: SHVAVENALGLDQQFAGLDLNSSDNQSGGSTASKGRYIPPHLRNREATKGFYDKDSSGWSSSKDKDAYSSFGSRSDSRGKSSFFSDRGSGSRGRFDDRGRSDYDGIGSRGDRSGFGKFERGGNSRWCDKSDEDDWSKPLPPSERLEQELFSGGNTGINFEKYDDIPVEATGNNCPPHIESFSDVEMGEIIMGNIELTRYTRPTPVQKHAIPIIKEKRDLMACAQTGSGKTAAFLLPILSQIYSDGPGEALRAMKENGRYGRRKQYPISLVLAPTRELAVQIYEEARKFSYRSRVRPCVVYGGADIGQQIRDLERGCHLLVATPGRLVDMMERGKIGLDFCKYLVLDEADRMLDMGFEPQIRRIVEQDTMPPKGVRHTMMFSATFPKEIQMLARDFLDEYIFLAVGRVGSTSENITQKVVWVEESDKRSFLLDLLNATGKDSLTLVFVETKKGADSLEDFLYHEGYACTSIHGDRSQRDREEALHQFRSGKSPILVATAVAARGLDISNVKHVINFDLPSDIEEYVHRIGRTGRVGNLGLATSFFNERNINITKDLLDLLVEAKQEVPSWLENMAYEHHYKGSSRGRSKSSRFSGGFGARDYRQSSGASSSSFSSSRASSSRSGGGGHGSSRGFGGGGYGGFYNSDGYGGNYNSQGVDWWGN | 17 |  |  |  | 7 | 11 | 2 |  |  | 7 |  |
